Legend:
[1] = target: T1, binding of α5β1 integrin to fibronectin (FN) (Homo sapiens, UniProt P05556+P08648); experiment: Quantitative FN inhibition (FN-blocking) assay in ELISA format; format: biochemical; settings: by ELISA
T1 construct: purchased Acro Biosystems IT1-H52W5
Source text: To determine whether the 9 unique hybridoma clones selected as described in Example 4 were able to inhibit the binding of α5β1 integrin to fibronectin (FN), the antibodies were first purified from hybridoma supernatants by Protein A chromatography, protein concentrations measured by BCA assay (Pierce™ BCA Protein Assay Kit; Thermo Fisher Scientific, Waltham, MA, cat. no. 23225) and then tested in a quantitative FN inhibition assay in an ELISA format.
Immulon4 HBX ELISA 96-well plates were coated with FN by incubation overnight at 4° C. with 2.5 μg/mL human FN (R&D Systems, Minneapolis, MN 55413, cat. no. 1918-FN) in 1×PBS (0.01M phosphate buffer and 0.154M NaCl, pH 7.4). Plates were then washed 3 times with Wash Buffer (1× Tris Buffered Saline containing 0.05% Tween20), blocked with 2% BSA in 1×TBS for 2 hours at room temperature (RT). Antibodies were diluted in Standard Diluent (2% BSA, 1×TBS, 0.05% Tween20) containing 0.1 μg/mL rh-α5β1-6×His tagged protein (Acro Biosystems, Newark, DE, cat. no. IT1-H52W5), to generate an 11 point 1:3 antibody dilution series ranging from 10,000 ng/mL to 0.17 ng/mL. Isotype control antibody (Control Ab; Ms IgG2a EMD Millipore Corp, Billerica, MA, cat. no. PP102) was used to normalize data across different assay runs. For the assays, 100 uL of the antibody dilution series/His-tagged-α5β1 mixture was added to the wells after the blocking solution was removed and wells were washed 3 times. Following 1 hour at RT, the wells were washed 3 times, incubated with biotinylated Anti-6×His-Tag Ab (Invitrogen, Carlsbad, CA, cat. no. MAI-21315-BTIN) at 1:1000 in Standard Diluent for 1 hour, washed 3 times, incubated for 30 minutes with poly-HRP Streptavidin (Thermo Fisher Scientific, Waltham, MA, cat. no. N200), washed 4 times, incubated with TMB substrate (Thermo Fisher Scientific, Waltham, MA, cat. no. N301) for 2-5 minutes, followed by addition of ELISA Stop Solution (Invitrogen, Carlsbad, CA, cat. no. SS04). Absorbance 450 nm was measured. Data points were normalized to the isotype Control Ab values at each concentration and reported as % Absorbance 450 nm normalized to Control Ab. Non-linear regression analysis was used to fit curves (4-parameter) to the data using GraphPad Prism version 9.0.2 (GraphPad Software, LLC, San Diego, CA).
Freeze-thaw stability was tested on a small aliquot of each chimera antibody by overnight storage at −80° C. followed by thaw on ice, repeated three times. […] IC50s were calculated by non-linear regression analysis curve-fitting (4-parameter) of the ELISA data (FIG. 5) using GraphPad Prism version 9.0.2 (GraphPad Software, LLC, San Diego, CA). […]

[2] = target: rh-α5β1 protein bound to human FN protein (Homo sapiens, UniProt P05556+P08648); experiment: SPR dissociation of rh-α5β1 bound to FN; format: biochemical; settings: 1 μM antibody injected for 250s after 400 nM rh-α5β1; 25° C.
rh-α5β1 protein bound to human FN protein, sequence (P08648 42-894 limits assumed): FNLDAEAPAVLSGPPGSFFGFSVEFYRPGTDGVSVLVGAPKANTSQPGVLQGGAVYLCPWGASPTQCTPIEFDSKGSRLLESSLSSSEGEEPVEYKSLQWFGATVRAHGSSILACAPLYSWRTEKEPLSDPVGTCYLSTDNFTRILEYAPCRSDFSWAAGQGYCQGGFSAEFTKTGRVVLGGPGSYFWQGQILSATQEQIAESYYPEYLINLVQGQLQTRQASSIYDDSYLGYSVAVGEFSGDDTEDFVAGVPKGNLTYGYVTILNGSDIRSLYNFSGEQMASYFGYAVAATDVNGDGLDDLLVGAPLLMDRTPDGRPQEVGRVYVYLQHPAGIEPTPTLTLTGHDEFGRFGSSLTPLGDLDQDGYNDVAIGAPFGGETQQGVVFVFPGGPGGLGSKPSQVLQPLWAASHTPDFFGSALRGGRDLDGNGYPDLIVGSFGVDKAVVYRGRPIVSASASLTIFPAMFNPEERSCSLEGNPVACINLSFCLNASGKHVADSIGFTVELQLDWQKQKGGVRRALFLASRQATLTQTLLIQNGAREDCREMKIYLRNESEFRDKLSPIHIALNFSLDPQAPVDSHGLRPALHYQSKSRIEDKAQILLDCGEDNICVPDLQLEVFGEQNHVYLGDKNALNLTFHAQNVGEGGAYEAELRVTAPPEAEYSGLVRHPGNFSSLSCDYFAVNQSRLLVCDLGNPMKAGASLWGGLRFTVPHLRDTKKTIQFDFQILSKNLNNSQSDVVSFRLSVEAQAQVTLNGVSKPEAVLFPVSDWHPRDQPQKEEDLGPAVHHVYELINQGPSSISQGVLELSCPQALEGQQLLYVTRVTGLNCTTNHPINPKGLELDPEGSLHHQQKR
rh-α5β1 protein bound to human FN protein, sequence (P08648 895-995 limits assumed): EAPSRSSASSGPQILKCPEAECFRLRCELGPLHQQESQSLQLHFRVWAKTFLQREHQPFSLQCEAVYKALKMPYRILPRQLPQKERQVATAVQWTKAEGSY
rh-α5β1 protein bound to human FN protein, sequence (P05556 21-728 limits assumed): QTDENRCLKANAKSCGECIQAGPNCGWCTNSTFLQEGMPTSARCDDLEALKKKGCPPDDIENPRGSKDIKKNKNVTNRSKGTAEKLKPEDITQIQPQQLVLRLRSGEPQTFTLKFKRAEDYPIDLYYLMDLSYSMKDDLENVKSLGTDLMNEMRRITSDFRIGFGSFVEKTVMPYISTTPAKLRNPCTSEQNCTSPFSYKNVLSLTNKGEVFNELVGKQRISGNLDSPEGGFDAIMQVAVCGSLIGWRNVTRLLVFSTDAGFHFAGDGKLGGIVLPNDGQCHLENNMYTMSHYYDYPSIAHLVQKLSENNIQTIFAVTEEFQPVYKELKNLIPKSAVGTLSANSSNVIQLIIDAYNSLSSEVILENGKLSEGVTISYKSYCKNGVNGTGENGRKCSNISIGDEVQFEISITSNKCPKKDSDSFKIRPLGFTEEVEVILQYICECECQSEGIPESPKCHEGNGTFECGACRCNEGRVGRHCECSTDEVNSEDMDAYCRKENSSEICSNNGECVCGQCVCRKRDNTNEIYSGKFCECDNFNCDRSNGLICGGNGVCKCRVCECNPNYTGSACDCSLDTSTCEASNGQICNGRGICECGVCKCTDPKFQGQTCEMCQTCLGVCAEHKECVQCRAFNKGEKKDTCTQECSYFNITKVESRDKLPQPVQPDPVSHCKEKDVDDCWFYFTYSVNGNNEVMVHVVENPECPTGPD
Description: Surface Plasmon Resonance (SPR) and a cell-based assay were used to test the effect of the antibodies on the dissociation of rh-α5β1 protein bound to human FN protein. The antibodies tested are representatives of the two groups of antibodies identified in Example 6 that define two different epitope binding groups and have distinct ligand blocking properties. […] In addition, the small molecule antagonist cyclic RGD (cRGD; Creative-Peptides, Shirley, New York, 11967, cat. no. CP22175) was tested as a comparator that inhibits α5β1 integrin binding to FN by competing at the ligand binding pocket.
Description of the SPR method used: FN protein dissolved in water was manually printed onto the bare gold-coated (thickness 47 nm) PlexArray Nanocapture Sensor Chip (Plexera Bioscience, Seattle, WA) at 40% humidity. The chip was incubated in 80% humidity at 4° C. for overnight and rinsed with 10×PBST (0.1M phosphate buffer, 1.54M NaCl, pH7.4, 0.5% Tween20) for 10 minutes (min), 1×PBST (0.01M phosphate buffer pH7.4, 0.154M NaCl, 0.05% Tween20) for 10 min, and deionized water twice for 10 min. The chip was then blocked with 5% (w/v) non-fat milk in water overnight, and washed with 10×PBST for 10 min, 1×PBST for 10 min, and deionized water twice for 10 min before being dried under a stream of nitrogen prior to use. SPR measurements were performed using PlexArray HT (Plexera Bioscience, Seattle, WA), a high-throughput surface plasmon resonance imaging (SPRi) platform. Collimated light (660 nm) passes through the coupling prism, reflects off the SPR-active gold surface, and is received by the CCD camera. Buffers and samples were injected by a non-pulsatile piston pump into the 30 μL flow cell that was mounted on the coupling prim. […] SPR binding responses (a.u.) were recorded and plotted over time.

T1 sequence (P08648 42-894 limits assumed): as the sequence (P08648 42-894 limits assumed) above
T1 sequence (P08648 895-995 limits assumed): as the sequence (P08648 895-995 limits assumed) above
T1 sequence (P05556 21-728 limits assumed): as the sequence (P05556 21-728 limits assumed) above

Molecule	class of FN binding blocker [1]	effect on dissociation of rh-α5β1 protein bound to FN (SPR response) [2]
A-15B08: anti-α5β1 antibody, VH SEQ ID NO:25, VL SEQ ID NO:26; tested as mouse hybridoma antibody and as human IgG4 chimera (antibody, V domains shown, A-15B08 VH Sequence; A-15B08 VL Sequence, tested as mouse hybridoma antibody and as human IgG4 chimera) VH: QVQLKESGPGLVAPSQSLSITCTISGFSLTSYGVHWVRQPPGKGLEWLVVIWSDGSTTYNSTLKSRLSISKDNSKSQVFFKMNSLQTDDTAMYYCARHYDYDGDWFAYWGQGTLVTVSA VL: QIVLTQSPAIMSASLGERVTMTCTASSRVSSNSLHWYQQKPGSSPKLWIYSTSNLASGVPARFSGSGSGTSYSLTISSMEAEDAATYYCHQYLRSPPTFGGGTKLEIK	strong blockers of FN binding	rapid dissociation of the FN-α5β1 complex
A2-7A05: anti-α5β1 antibody, VH SEQ ID NO:77, VL SEQ ID NO:78; tested as mouse hybridoma antibody and as human IgG4 chimera (antibody, V domains shown, A2-7A05 VH Sequence; A2-7A05 VL Sequence, tested as mouse hybridoma antibody and as human IgG4 chimera) VH: QVQLQQPGAELVKPGASVKLSCKASGYTFTIYWINWVKQRPGQGLEWIGKIYPGSISTDYNEKFKSKATLTVDTSSSTAYMQLSSLTSDDSAVYYCAITGTGGLAYWGQGTLVTVSA VL: ENVLTQSPAIMSASLGEKVTMTCRASSSVNYMYWYQQKSDASPKLWIYFTSSLAPGVPGRFSGSGSGNSYSLTISTMEGEDAATYYCQQFTTSPFTFGSGTKLEIK	partial blocker of FN binding	partial dissociation at a slower rate

From patent publication US20240279345A1, “ALPHA 5 BETA 1 INTEGRIN BINDING AGENTS AND USES THEREOF” (PASITHEA THERAPEUTICS CORP., priority 2021, published 2024)
